Results from the supplement of paper PMC11780869.

System: Bacillus subtilis
Test: cleaved RNA product abundance (RNA/gDNA barcode ratio) relative to median wild-type variant (ratio to wild type); higher = more accumulation of the downstream cleavage product
Outline: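 Reporter mRNAs based on truncated aprE or tetM carried barcoded, mutagenized RNase Y cleavage-site windows built from oligos with a 9% error rate and were integrated into the B. subtilis chromosome. Cultures grew in LB at 37°C from OD600 0.0003 to 0.3. Cleaved RNA was gel-selected, reverse transcribed and barcode-sequenced together with genomic DNA barcodes, and UMIs were collapsed. Cleaved product abundance is the per-construct ratio of RNA to gDNA barcodes, scaled to the median of constructs carrying the unmutated site.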

[1] = experiment (reporter, strain, medium): exp 2b: truncated aprE reporter, strain BJT200, cleavage site: cggR-gapA (positions -7 to +36 mutated)
[2] = experiment (reporter, strain, medium): exp 4a: truncated aprE reporter, strain BJT201 with 2% xylose (RNase J1 expressed), cleavage site: cggR-gapA (positions -7 to +36 mutated)
[3] = experiment (reporter, strain, medium): exp 8a: truncated aprE reporter, strain BJT201 with 2% xylose (RNase J1 expressed), cleavage site: glnRA (positions -5 to +31 mutated)
[4] = experiment (reporter, strain, medium): exp 6: tetM reporter, strain 168, cleavage site: cggR-gapA (positions -7 to +36 mutated)

Sequence	cleaved RNA product abundance [1]	cleaved RNA product abundance [2]	cleaved RNA product abundance [3]	other results
ACAGACGAAGGAGCCGCAAAGAACTTATTAAGGTATGAATAATCCCTCAATATAAATATCTCTCACTTATTTAAA	0.0959	0.108	–	–
ACAGACGAAGGAGCCGCAAAGAAGTTATTAAGGGATGAATAATCCCTCTATATAAATCTCTCTCACTTATTTAAA	–	0.529	–	–
ACAGACGAAGGAGCCGCAAAGACGTTATTAAGGGATGAATAATCCCTCGATATAAATATCTCTCACTTATTTAAA	–	0.386	–	–
ACAGACGAAGGAGCCGCAAAGAAGTTATTTAGGGATGAATAATCCCTCAATATAAAAATCTCTCACTTATTTAAA	–	0.601	–	–
CGACATGTCCCGCTTCTTTCATTAATCCGTTAGCAACTGTTTTGCTATATACATTTACAATTTAAGAGGAGGAAT	–	–	1.08	–
CGACATGTCCCGCTTCTTTCATTAATCAGTTAGCAACTGTTTTGCTATATACATTTACCATTTAAGAGGAGGAAT	–	–	0.636	–
ACAGACGAAGGAGCCGCAAAGCAGTTATTAAGGGATGAAAAATCCCTCAATATAAATATCTCTCACTTATTTAAA	–	0.687	–	–
ACAGACGAAGGAGCCGCAAAGAAGTTATTAAGGGATAAATAATCCCTCAATATAAATATCTCTCACTTATTTAAA	0.898	0.872	–	cleaved RNA product abundance [4]: 0.954
ACAGACGAAGGAGCCGCAAAGAAGTTATTAAGGGATGAGTAATCACTCAATATAAATATCTCTCACTTATTTAAA	–	0.264	–	–
CGACATGTCCCGCTTCTTTCATTAATCCGATAGAAACTGTTTTGCTATATACATTTACCTTTTAAGAGGAGGAAT	–	–	0.302	–
ACAGACGAAGGAGCCGCAAAGAAGATATTAAGGGATGAATAATACCTCAATATAAATATCTCTCACTTATTTAAA	0.162	0.237	–	–
ACAGACGAAGGAGCCGCAAAGAAGTTATTACGGAATGAATAATCCCTCAATATAAATATCTCTCACTTATTTAAA	0.1	0.0966	–	–
ACAGACGAAGGAGCCGCAAAGAAGTTATTAAGGGATGAATAAACCCTCATTATAAATATCTCTCACTTATTTAAA	0.13	0.19	–	–
CGACATGTCCCGCTTCTTTCATTATTACGTTAGCAACTGTTTTGCTATATACATTTACCTTTTAAGAGGAGGAAT	–	–	1.27	–
ACAGACGAAGGAGCCGCAAAGAGGTTATTAAAGGATGAATAATCCCTCAATATAAATATCTCTCACTTATTTAAA	0.166	–	–	–
ACAGACGAAGGAGCCGCAAAGAAGTTACTAAGGTATGAATAATCCCTCAATATAAATATCTCTCACTTATTTAAA	0.103	0.15	–	cleaved RNA product abundance [4]: 0.0813
ACAGACGAAGGAGCCGCAAAGAATTTATTAAGGGATGAATAATACCTCAATATAAATATCTCTCACTTATTTAAA	0.105	0.177	–	–
CGACATGTCCCGCTTCTTTCATTAATCCGTTACCAACTGTTTTGCTAAATACATTTACCTTTTAAGAGGAGGAAT	–	–	0.169	–
ACAGACGAAGGAGCCGCAAAGAAGTCATTAAGGGATGAATAATCCTTCAATATAAATATCTCTCACTTATTTAAA	–	0.189	–	–
CGACATGTCCCGCTTCTTTCATTAATCCGTTAGTAACTGTTTTGCTATATACATTTACTTTTTAAGAGGAGGAAT	–	–	0.36	–
ACAGACGAAGGAGCCGCAAAGAAGTTATTAATGGATGAATAATCCCTCAATATCAATATCTCTCACTTATTTAAA	–	0.0753	–	–
ACAGACGAAGGAGCCGCAAAGAAGTAATTAAGGGATGACTAATCCCTCAATATAAATATCTCTCACTTATTTAAA	0.123	0.289	–	–
ACAGACGAAGGAGCCGCAAAGAAGTTATTAAGGGATGAATAATACCTCATTATAAATATCTCTCACTTATTTAAA	–	0.117	–	–
CGACATGTCCCGCTTCTTTCATTAATCCGTTAGCAACTGTTTTGCTATAGACATTTACCTTTTAAGAGGAGGAAT	–	–	0.624	–
ACAGACGAAGGAGCCGCAAAGAATTTATTAAGGGATGAATAATGCATCAATATAAATATCTCTCACTTATTTAAA	–	0.2	–	–
ACAGACGAAGGAGCCGCAAAGAATTTATTAAAGGATGAATAATCCCTCAATATAAATATCTCTCACTTATTTAAA	0.171	0.213	–	–
ACAGACGAAGGAGCCGCAAAGAAGTTATTACGGGATGAATAATACCTCAATATAAATATCTCTCACTTATTTAAA	–	0.112	–	–

Sequence	cleaved RNA product abundance [1]	cleaved RNA product abundance [2]	cleaved RNA product abundance [3]	other results
ACAGACGAAGGAGCCGCAAAGAAGTTACTAAGGGATTAATAATCCCTCAATATAAATATCTCTCACTTATTTAAA	0.169	0.299	–	–
ACAGACGAAGGAGCCGCAAAGAAGTGATTAAGGGATGAATACTCCCTCAATATAAATATCTCTCACTTATTTAAA	–	0.354	–	–
ACAGACGAAGGAGCCGCAAAAAAGTTATTAAGGGATAAATAATCCCTCAATATAAATATCTCTCACTTATTTAAA	0.8	0.86	–	–
ACAGACGAAGGAGCCGCAAAGAAATTATTAAGGGATGAATAATCCCTCAAGATAAATATCTCTCACTTATTTAAA	0.188	0.189	–	–
ACAGACGAAGGAGCCGCATAGAAGTTATTAAGGGATGAATAATCCCTCCATATAAATATCTCTCACTTATTTAAA	–	0.24	–	–
CGACATGTCCCGCTTCTTTCATTAATCCGTAAGCAACTGTTTGGCTATATACATTTACCTTTTAAGAGGAGGAAT	–	–	0.371	–
ACAGACGAAGGAGCCGCAAAGAAGTTATTAAGGGATGAATAATCCCCCACTATAAATATCTCTCACTTATTTAAA	–	0.3	–	–
ACAGACGAAGGAGCCGCAAAGAAGTTACTAAGGGATGAATACTCCCTCAATATAAATATCTCTCACTTATTTAAA	0.107	–	–	–
ACAGACGAAGGAGCCGCAAACAAGTTATTCAGGGATGAATAATCCCTCAATATAAATATCTCTCACTTATTTAAA	0.495	–	–	–
ACAGACGAAGGAGCCGCAAAGAATTTATTAAGTGATGAATAATCCCTCAATATAAATATCTCTCACTTATTTAAA	0.127	0.118	–	cleaved RNA product abundance [4]: 0.117
ACAGACGAAGGAGCCGCAAACAAGTTATTAAGGGATGAATAATCCCTCTATATAAATATCTCTCACTTATTTAAA	–	0.46	–	–
ACAGACGAAGGAGCCGCAAAGAAGTAATTAAGGGATGAATAATCCCTGAATATAAATATCTCTCACTTATTTAAA	–	0.253	–	–
CGACATGTCCCGCTTCTTTCATTAATTCGTTAGCAACTGTTTTCCTATATACATTTACCTTTTAAGAGGAGGAAT	–	–	0.485	–
CGACATGTCCCGCTTCTTTCATTAATCCGTTAGCAACTGTTTAGGTATATACATTTACCTTTTAAGAGGAGGAAT	–	–	0.227	–
ACAGACGAAGGAGCCGCCAAGAAGTTATTAAGGGATGAATAATCCTTCAATATAAATATCTCTCACTTATTTAAA	0.518	0.531	–	–
CGACATGTCCCGCTTCTTTCATTAATCCTTTAGCAACTGTTTTGCCATATACATTTACCTTTTAAGAGGAGGAAT	–	–	0.2	–
CGACATGTCCCGCTTCTTTCATTAATCCGTAATCAACTGTTTTGCTATATACATTTACCTTTTAAGAGGAGGAAT	–	–	0.265	–
CGACATGTCCCGCTTCTTTCATTAATCCGTTAGTATCTGTTTTGCTATATACATTTACCTTTTAAGAGGAGGAAT	–	–	0.422	–
ACAGACGAAGGAGCCGCAAATAAGTTATTAAGGGATGAATAATCCCTCAATGTAAATATCTCTCACTTATTTAAA	–	0.178	–	–
CGACATGTCCCGCTTCTTTCATTATTCGGTTAGCAACTGTTTTGCTATATACATTTACCTTTTAAGAGGAGGAAT	–	–	1.73	–
ACAGACGAAGGAGCCGCAAAGAAGTTATTAAGGTATGAATAATCCCTCAATATAAATTTCTCTCACTTATTTAAA	–	0.17	–	–
CGACATGTCCCGCTTCTTTCATTAATCCATTACCAACTGTTTTACTATATACATTTACCTTTTAAGAGGAGGAAT	–	–	0.262	–
CGACATGTCCCGCTTCTTTCATTAATCCGTTAGCTACTGTTTTGCTATATACATTTACCTTTTAAGAGGAGGAAT	–	–	0.56	–
ACAGACGAAGGAGCCGCAAAGAAGTTATTTAGGGATGAATAATACCTCAATATAAATATCTCTCACTTATTTAAA	–	0.141	–	–
ACAGACGAAGGAGCCGCCAAGAAGTTATTAAGGGATGAAAAATCCCTCAATATAAATATCTCTCACTTATTTAAA	–	0.576	–	–
CGACATGTCCCGCTTCTTTCATTAATCTGTTAGCAACTGTTATGCTATATACATTTACCTTTTAAGAGGAGGAAT	–	–	0.799	–
CGACATGTCCCGCTTCTTTCATTAATCCGTTAGCAACTGTTTAGCCATATACATTTACCTTTTAAGAGGAGGAAT	–	–	0.259	–
